No end group written: not given here.
target: amylin receptor in membranes prepared from the nucleus accumbens portion of the brain (rat) (rat); experiment: displacement of 125I-rat amylin from rat nucleus accumbens membranes

Compared with CNTATCATQRLANFLVRSSNNLGPK(mPEG40KD)LPPTNVGSNTY-NH2 (ends and bridges not checked) [Cmpd 24, [K^26(mPEG40KD)]-Cmpd 6], KCNTATCATQRLANFLVRSSK(mPEG40KD)NLGPVLPPTNVGSNTY-NH2 (ends and bridges not checked) [Cmpd 21, [K^21(mPEG40KD)]-Cmpd 3] is 1.9-fold higher in IC50: 54 nM for the first, 104 nM for the second.

First: mPEG40KD-CNTATCATQRLANFLVRSSNNLGPVLPPTNVGSNTY-NH2 (ends and bridges not checked) [Cmpd 20, mPEG40KD-Cmpd 2]
Second: KCNTATCATQRLANFLVRSSNNLGPK(Y‑shaped‑mPEG40KD)LPPTNVGSNTY-NH2 (ends and bridges not checked) [Cmpd 27, [K^26(Y-shaped-mPEG4OKD)]-Cmpd 5]
The IC50 of the first is 6-fold lower: 78 nM for the first, 470 nM for the second.

Going from CNTATCATQRLANFLVRSSNNLGPVLPPTK(mPEG40KD)VGSNTY-NH2 (ends and bridges not checked) [Cmpd 26, [K^31(mPEG40KD)]-Cmpd 8] to CNTATCATQRLANFLVRSSNNLGPVLPPTNVGSNTY-NH2 (ends and bridges not checked) [Cmpd 2 ([desLys^1]-Cmpd 1)], the IC50 falls from 75 nM to 0.42 nM (180-fold).

KCNTATCATQRLANFLVRSSNNLGPVLPPTK(mPEG40KD)VGSNTY-NH2 (ends and bridges not checked) [Cmpd 25, [K^31(mPEG40KD)]-Cmpd 7] and CNTATCATQRLANFLVRSSK(mPEG40KD)NLGPVLPPTNVGSNTY-NH2 (ends and bridges not checked) [Cmpd 22, [K^21(mPEG40KD)]-Cmpd 4] are within 1.5-fold of each other in IC50: 86 nM for the first, 112 nM for the second.

In the case of KCNTATCATQRLANFLVRSSNNLGPK(mPEG40KD)LPPTNVGSNTY-NH2 (ends and bridges not checked) [Cmpd 23, [K^26(mPEG40KD)]-Cmpd 5], the IC50 is reported as 66 nM.
